The values below come from article PMC10686989, “Distinct activation mechanisms of β-arrestin-1 revealed by ^19F NMR spectroscopy” (Nature Communications, 2023).

The experiment deals with cysteine-less β-arrestin-1 D390C, 19F-labelled with wPSP-6F (human) (UniProt P49407). Put plainly: NMR titration; 19F NMR of wPSP-6F-labelled βarr1 (D390C site) titrated with phosphopeptide; 298 K, 20 mM Tris-HCl, 150 mM NaCl, pH 8.0; Kd estimated.

pKd: −log10 of the molar value.

Chain of cysteine-less β-arrestin-1 D390C, 19F-labelled with wPSP-6F (human) (P49407 whole entry C59V/C125S/C140L/C150V/C242V/C251V/C269S/D390C): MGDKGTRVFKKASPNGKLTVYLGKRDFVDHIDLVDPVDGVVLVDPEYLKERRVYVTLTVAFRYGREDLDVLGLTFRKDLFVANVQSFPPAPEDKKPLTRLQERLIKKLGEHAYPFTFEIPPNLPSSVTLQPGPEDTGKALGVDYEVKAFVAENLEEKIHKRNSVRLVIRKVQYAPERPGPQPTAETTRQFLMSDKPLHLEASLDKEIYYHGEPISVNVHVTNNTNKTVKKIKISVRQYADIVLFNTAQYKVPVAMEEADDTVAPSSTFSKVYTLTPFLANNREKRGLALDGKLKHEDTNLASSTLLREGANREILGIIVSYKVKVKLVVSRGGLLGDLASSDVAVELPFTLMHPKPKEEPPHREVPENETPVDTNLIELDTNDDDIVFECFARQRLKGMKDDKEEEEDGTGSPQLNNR

One may read the pKd as the negative decadic logarithm of the Kd, by convention in mol/L. With “V2Rpp, phosphopeptide derived from the vasopressin V2 receptor (V2R)”, the pKd is 5.89.
